We go through six sequences from the supplement of paper PMC5998384.

Data set [1] has as its system HeLa Kyoto. The data set is described as follows: solubility in G1/S (NP-40 vs SDS abundance) (log2 ratio); higher = more soluble. The following applies: cell cycle stage: G1/S.
For data set [2], the system named is HeLa Kyoto. The data set is described as follows: melting temperature (median over replicates), in situ; higher = more thermally stable.
Data set [3] has as its system HeLa Kyoto. The data set is described as follows: solubility change mitosis vs G1/S (difference of NP-40 vs SDS log2 ratios) (log2 ratio difference); higher = more soluble in mitosis.
Data set [4] concerns HeLa Kyoto. The data set is described as follows: thermal stability score vs G1/S (z-score of summed log2 fold changes over temperatures); higher = more thermally stable than in G1/S.
The mark [5] stands for this setting: cell cycle stage: early G1 (4.5 h after nocodazole release).
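Throughout, for melting temperature (median over replicates), in situ: HeLa Kyoto cells synchronized by double thymidine or nocodazole block, proteins quantified by TMT10plex mass spectrometry, three independent biological replicates.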
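Throughout, for solubility change mitosis vs G1/S (difference of NP-40 vs SDS log2 ratios): synchronized HeLa Kyoto cells (double thymidine block for G1/S, nocodazole release for mitosis), protein amounts in NP-40 versus SDS lysates quantified by mass spectrometry, three biological replicates.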
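Throughout, for solubility in G1/S (NP-40 vs SDS abundance): HeLa Kyoto cells arrested at G1/S by double thymidine block, proteins quantified by TMT10plex mass spectrometry in mild NP-40 versus SDS extracts, three biological replicates.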
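Throughout, for thermal stability score vs G1/S (z-score of summed log2 fold changes over temperatures): synchronized HeLa Kyoto cells, proteins quantified by TMT10plex mass spectrometry, three biological replicates, mitosis taken 0.5 h after nocodazole release, G1/S directly after double thymidine block.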

Consider “MAAAFEASGALAAVATAMPAEHVAVQVPAPEPTPGPVRILRTAQDLSSPRTRTGDVLLAEPADFESLLLSRPVLEGLRAAGFERPSPVQLKAIPLGRCGLDLIVQAKSGTGKTCVFSTIALDSLVLENLSTQILILAPTREIAVQIHSVITAIGIKMEGLECHVFIGGTPLSQDKTRLKKCHIAVGSPGRIKQLIELDYLNPGSIRLFILDEADKLLEEGSFQEQINWIYSSLPASKQMLAVSATYPEFLANALTKYMRDPTFVRLNSSDPSLIGLKQYYKVVNSYPLAHKVFEEKTQHLQELFSRIPFNQALVFSNLHSRAQHLADILSSKGFPAECISGNMNQNQRLDAMAKLKHFHCRVLISTDLTSRGIDAEKVNLVVNLDVPLDWETYMHRIGRAGRFGTLGLTVTYCCRGEEENMMMRIAQKCNINLLPLPDPIPSGLMEECVDWDVEVKAAVHTYGIASVPNQPLKKQIQKIERTLQIQKAHGDHMASSRNNSVSGLSVKSKNNTKQKLPVKSHSECGIIEKATSPKELGCDRQSEEQMKNSVQTPVENSTNSQHQVKEALPVSLPQIPCLSSFKIHQPYTLTFAELVEDYEHYIKEGLEKPVEIIRHYTGPGDQTVNPQNGFVRNKVIEQRVPVLASSSQSGDSESDSDSYSSRTSSQSKGNKSYLEGSSDNQLKDSESTPVDDRISLEQPPNGSDTPNPEKYQESPGIQMKTRLKEGASQRAKQSRRNLPRRSSFRLQTEAQEDDWYDCHREIRLSFSDTYQDYEEYWRAYYRAWQEYYAAASHSYYWNAQRHPSWMAAYHMNTIYLQEMMHSNQ [DDX20]”, for which the “solubility in G1/S (log2)” value in data set [1] was -0.119. In addition, the figures for the melting temperature in data set [2] (cell cycle stage: G1/S) and in data set [2] (cell cycle stage: mitosis) were 47.5 °C and 48.8 °C, respectively. Moreover, the “solubility change mitosis (log2)” value in data set [3] is 0.084. Further, the thermal stability score in data set [4] (setting [5]) is -0.14; in data set [4] (cell cycle stage: mitosis) it was 3.36.

Consider “MSPEEWTYLVVLLISIPIGFLFKKAGPGLKRWGAAAVGLGLTLFTCGPHTLHSLVTILGTWALIQAQPCSCHALALAWTFSYLLFFRALSLLGLPTPTPFTNAVQLLLTLKLVSLASEVQDLHLAQRKEMASGFSKGPTLGLLPDVPSLMETLSYSYCYVGIMTGPFFRYRTYLDWLEQPFPGAVPSLRPLLRRAWPAPLFGLLFLLSSHLFPLEAVREDAFYARPLPARLFYMIPVFFAFRMRFYVAWIAAECGCIAAGFGAYPVAAKARAGGGPTLQCPPPSSPEKAASLEYDYETIRNIDCYSTDFCVRVRDGMRYWNMTVQWWLAQYIYKSAPARSYVLRSAWTMLLSAYWHGLHPGYYLSFLTIPLCLAAEGRLESALRGRLSPGGQKAWDWVHWFLKMRAYDYMCMGFVLLSLADTLRYWASIYFCIHFLALAALGLGLALGGGSPSRRKAASQPTSLAPEKLREE [MBOAT7]”, for which, in data set [1], the “solubility in G1/S (log2)” value was -0.091. For the same sequence, the melting temperature in data set [2] (cell cycle stage: G1/S) came to 56.9 °C; in data set [2] (cell cycle stage: mitosis), 57 °C. For the same sequence, the “solubility change mitosis (log2)” value in data set [3] is 0.0131. The results for the thermal stability score in data set [4] (setting [5]) and in data set [4] (cell cycle stage: mitosis) were -1.37 and -1.09, respectively.

As to “MGRKLDPTKEKRGPGRKARKQKGAETELVRFLPAVSDENSKRLSSRARKRAAKRRLGSVEAPKTNKSPEAKPLPGKLPKGISAGAVQTAGKKGPQSLFNAPRGKKRPAPGSDEEEEEEDSEEDGMVNHGDLWGSEDDADTVDDYGADSNSEDEEEGEALLPIERAARKQKAREAAAGIQWSEEETEDEEEEKEVTPESGPPKVEEADGGLQINVDEEPFVLPPAGEMEQDAQAPDLQRVHKRIQDIVGILRDFGAQREEGRSRSEYLNRLKKDLAIYYSYGDFLLGKLMDLFPLSELVEFLEANEVPRPVTLRTNTLKTRRRDLAQALINRGVNLDPLGKWSKTGLVVYDSSVPIGATPEYLAGHYMLQGASSMLPVMALAPQEHERILDMCCAPGGKTSYMAQLMKNTGVILANDANAERLKSVVGNLHRLGVTNTIISHYDGRQFPKVVGGFDRVLLDAPCSGTGVISKDPAVKTNKDEKDILRCAHLQKELLLSAIDSVNATSKTGGYLVYCTCSITVEENEWVVDYALKKRNVRLVPTGLDFGQEGFTRFRERRFHPSLRSTRRFYPHTHNMDGFFIAKFKKFSNSIPQSQTGNSETATPTNVDLPQVIPKSENSSQPAKKAKGAAKTKQQLQKQQHPKKASFQKLNGISKGADSELSTVPSVTKTQASSSFQDSSQPAGKAEGIREPKVTGKLKQRSPKLQSSKKVAFLRQNAPPKGTDTQTPAVLSPSKTQATLKPKDHHQPLGRAKGVEKQQLPEQPFEKAAFQKQNDTPKGPQPPTVSPIRSSRPPPAKRKKSQSRGNSQLLLS [NOP2]”, the “solubility in G1/S (log2)” value in data set [1] was -2.12. For the same sequence, the melting temperature in data set [2] (cell cycle stage: G1/S) came out at 55.4 °C; in data set [2] (cell cycle stage: mitosis), 53.9 °C. In addition, in data set [3], the “solubility change mitosis (log2)” value turned out to be 0.976. The figures for the thermal stability score in data set [4] (setting [5]) and in data set [4] (cell cycle stage: mitosis) were -0.377 and -6.17, respectively.

For “MKPGATGESDLAEVLPQHKFDSKSLEAYLNQHLSGFGAEREATLTIAQYRAGKSNPTFYLQKGFQTYVLRKKPPGSLLPKAHQIDREFKVQKALFSIGFPVPKPILYCSDTSVIGTEFYVMEHVQGRIFRDLTIPGLSPAERSAIYVATVETLAQLHSLNIQSLQLEGYGIGAGYCKRQVSTWTKQYQAAAHQDIPAMQQLSEWLMKNLPDNDNEENLIHGDFRLDNIVFHPKECRVIAVLDWELSTIGHPLSDLAHFSLFYFWPRTVPMINQGSYSENSGIPSMEELISIYCRCRGINSILPNWNFFLALSYFKMAGIAQGVYSRYLLGNNSSEDSFLFANIVQPLAETGLQLSKRTFSTVLPQIDTTGQLFVQTRKGQEVLIKVKHFMKQHILPAEKEVTEFYVQNENSVDKWGKPLVIDKLKEMAKVEGLWNLFLPAVSGLSHVDYALIAEETGKCFFAPDVFNCQAPDTGNMEVLHLYGSEEQKKQWLEPLLQGNITSCFCMTEPDVASSDATNIECSIQRDEDSYVINGKKWWSSGAGNPKCKIAIVLGRTQNTSLSRHKQHSMILVPMNTPGVKIIRPLSVFGYTDNFHGGHFEIHFNQVRVPATNLILGEGRGFEISQGRLGPGRIHHCMRTVGLAERALQIMCERATQRIAFKKKLYAHEVVAHWIAESRIAIEKIRLLTLKAAHSMDTLGSAGAKKEIAMIKVAAPRAVSKIVDWAIQVCGGAGVSQDYPLANMYAITRVLRLADGPDEVHLSAIATMELRDQAKRLTAKI [ACAD11]”, in data set [1], the “solubility in G1/S (log2)” value was -0.0959. For the same sequence, the results for the melting temperature in data set [2] (cell cycle stage: G1/S) and in data set [2] (cell cycle stage: mitosis) were 53.9 °C and 52.9 °C, respectively. Further, the “solubility change mitosis (log2)” value in data set [3] is -0.0749. Further, the results for the thermal stability score in data set [4] (setting [5]) and in data set [4] (cell cycle stage: mitosis) were 0.241 and -0.505, respectively.

As for “MVKIVTVKTQAYQDQKPGTSGLRKRVKVFQSSANYAENFIQSIISTVEPAQRQEATLVVGGDGRFYMKEAIQLIARIAAANGIGRLVIGQNGILSTPAVSCIIRKIKAIGGIILTASHNPGGPNGDFGIKFNISNGGPAPEAITDKIFQISKTIEEYAVCPDLKVDLGVLGKQQFDLENKFKPFTVEIVDSVEAYATMLRSIFDFSALKELLSGPNRLKIRIDAMHGVVGPYVKKILCEELGAPANSAVNCVPLEDFGGHHPDPNLTYAADLVETMKSGEHDFGAAFDGDGDRNMILGKHGFFVNPSDSVAVIAANIFSIPYFQQTGVRGFARSMPTSGALDRVASATKIALYETPTGWKFFGNLMDASKLSLCGEESFGTGSDHIREKDGLWAVLAWLSILATRKQSVEDILKDHWQKYGRNFFTRYDYEEVEAEGANKMMKDLEALMFDRSFVGKQFSANDKVYTVEKADNFEYSDPVDGSISRNQGLRLIFTDGSRIVFRLSGTGSAGATIRLYIDSYEKDVAKINQDPQVMLAPLISIALKVSQLQERTGRTAPTVIT [PGM1]”, the “solubility in G1/S (log2)” value in data set [1] worked out at 0.266. The melting temperature in data set [2] (cell cycle stage: G1/S) is 57.6 °C; in data set [2] (cell cycle stage: mitosis), 58.3 °C. Further, the “solubility change mitosis (log2)” value in data set [3] is -0.0698. The thermal stability score in data set [4] (setting [5]) is -0.26; in data set [4] (cell cycle stage: mitosis) it was 0.494.

In the case of “MGAAHSASEEVRELEGKTGFSSDQIEQLHRRFKQLSGDQPTIRKENFNNVPDLELNPIRSKIVRAFFDNRNLRKGPSGLADEINFEDFLTIMSYFRPIDTTMDEEQVELSRKEKLRFLFHMYDSDSDGRITLEEYRNVVEELLSGNPHIEKESARSIADGAMMEAASVCMGQMEPDQVYEGITFEDFLKIWQGIDIETKMHVRFLNMETMALCH [TESC]”, the “solubility in G1/S (log2)” value in data set [1] was 0.101. Besides, the melting temperature was 51.1 °C in data set [2] (cell cycle stage: G1/S) and 51.7 °C in data set [2] (cell cycle stage: mitosis). Moreover, in data set [3], the “solubility change mitosis (log2)” value worked out at 0.0705. Besides, the values for the thermal stability score in data set [4] (setting [5]) and in data set [4] (cell cycle stage: mitosis) were 0.145 and 1.31, respectively.
